Positions count from the first letter of the chain named. Names may count otherwise.
T1: EsCas13d, nuclease-dead (Eubacterium siraeum, UniProt B0MS50, R295A;H300A;R849A;H854A)
T1 sequence: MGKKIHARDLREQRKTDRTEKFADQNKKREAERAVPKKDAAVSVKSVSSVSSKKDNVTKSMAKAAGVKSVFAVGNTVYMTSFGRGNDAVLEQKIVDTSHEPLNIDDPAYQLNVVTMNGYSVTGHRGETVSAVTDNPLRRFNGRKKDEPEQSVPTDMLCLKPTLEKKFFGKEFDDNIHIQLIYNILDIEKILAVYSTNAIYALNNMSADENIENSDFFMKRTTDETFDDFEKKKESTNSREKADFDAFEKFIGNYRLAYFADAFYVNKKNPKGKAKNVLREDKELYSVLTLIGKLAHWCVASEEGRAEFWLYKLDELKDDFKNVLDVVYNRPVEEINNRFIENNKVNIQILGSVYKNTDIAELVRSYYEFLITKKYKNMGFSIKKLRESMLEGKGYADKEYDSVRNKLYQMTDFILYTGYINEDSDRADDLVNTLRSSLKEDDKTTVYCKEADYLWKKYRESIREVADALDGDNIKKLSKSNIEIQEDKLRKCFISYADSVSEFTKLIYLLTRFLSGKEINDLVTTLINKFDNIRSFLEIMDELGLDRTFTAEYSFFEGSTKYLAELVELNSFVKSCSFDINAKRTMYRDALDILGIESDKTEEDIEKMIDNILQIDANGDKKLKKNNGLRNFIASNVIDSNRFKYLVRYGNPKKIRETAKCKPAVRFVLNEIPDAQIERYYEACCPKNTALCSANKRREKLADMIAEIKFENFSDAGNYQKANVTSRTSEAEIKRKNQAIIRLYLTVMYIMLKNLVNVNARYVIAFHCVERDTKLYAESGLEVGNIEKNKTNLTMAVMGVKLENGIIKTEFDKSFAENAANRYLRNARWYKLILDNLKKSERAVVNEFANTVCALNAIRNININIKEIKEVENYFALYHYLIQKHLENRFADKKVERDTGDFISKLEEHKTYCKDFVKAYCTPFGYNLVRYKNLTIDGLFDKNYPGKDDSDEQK

B1: target 1 insG 3' of 16,insG 3' of 2 (mixed)
RNA 1: CACCCGUGCAAAAAUGCAGGGGUCUAAAACUGAGCGGAUAACCUCUCUAUGG
RNA 2: GGGAAUGGAUCCACAUCUACGAAUUCGUACCAUAGAGGAGGUUAUCCGCUCGACCGAGAUCGGAAGAGCACACGU
B2: target 1 insU 3' of 18,insC 3' of 14 (mixed)
RNA 1: B1 RNA 1
RNA 2: GGGAAUGGAUCCACAUCUACGAAUUCGUACCAUAUGAGACGGUUAUCCGCUCACCGAGAUCGGAAGAGCACACGU
B3: target 1 insU 3' of 9,insA 3' of 7 (mixed)
RNA 1: B1 RNA 1
RNA 2: GGGAAUGGAUCCACAUCUACGAAUUCGUACCAUAGAGAGGUUAUUCACGCUCACCGAGAUCGGAAGAGCACACGU
B4: target 1 insG 3' of 14,insA 3' of 12 (mixed)
RNA 1: B1 RNA 1
RNA 2: B3 RNA 2 with U41G, U42A, A43U, U45A, C46U, A47C
B5: target 1 U10A,C22U (mixed)
RNA 1: B1 RNA 1
RNA 2: GGGAAUGGAUCCACAUCUACGAAUUCGUAUCAUAGAGAGGUAAUCCGCUCACCGAGAUCGGAAGAGCACACGU
B6: target 1 insC 3' of 19,insU 3' of 6 (mixed)
RNA 1: B1 RNA 1
RNA 2: B2 RNA 2 with A34C, U35A, C40G, G42U, U44A, A45U, U46C, C48U
B7: target 1 C4A,C22G (mixed)
RNA 1: B1 RNA 1
RNA 2: B5 RNA 2 with U30G, A42U, C48A
B8: target 1 insC 3' of 20,insG 3' of 19 (mixed)
RNA 1: B1 RNA 1
RNA 2: B2 RNA 2 with U33C, A34U, U35G, G36A, A37G, G38A, A39G, C40A
B9: target 1 insA 3' of 12,insA 3' of 11 (mixed)
RNA 1: B1 RNA 1
RNA 2: B3 RNA 2 with U41A, U45A, C46U, A47C
B10: target 1 insC 3' of 19,insA 3' of 15 (mixed)
RNA 1: B1 RNA 1
RNA 2: B2 RNA 2 with A34C, U35A, C40A
B11: target 1 insA 3' of 22,insU 3' of 6 (mixed)
RNA 1: B1 RNA 1
RNA 2: GGGAAUGGAUCCACAUCUACGAAUUCGUACACAUAGAGAGGUUAUCCUGCUCACCGAGAUCGGAAGAGCACACGU
B12: target 1 G12A,A14C (mixed)
RNA 1: B1 RNA 1
RNA 2: B5 RNA 2 with U30C, A38C, G40A, A42U
B13: target 1 insU 3' of 22,insC 3' of 3 (mixed)
RNA 1: B1 RNA 1
RNA 2: B11 RNA 2 with A31U, U48G, G49C, C50U, U51C
B14: target 1 U8C,U10C (mixed)
RNA 1: B1 RNA 1
RNA 2: B5 RNA 2 with U30C, A42C, U44C
B15: target 1 insA 3' of 22,insU 3' of 5 (mixed)
RNA 1: B1 RNA 1
RNA 2: B11 RNA 2 with U48G, G49U
B16: target 1 C2G,U19A (mixed)
RNA 1: B1 RNA 1
RNA 2: B5 RNA 2 with U30C, U33A, A42U, C50G
B17: target 1 insA 3' of 10,insA 3' of 7 (mixed)
RNA 1: B1 RNA 1
RNA 2: B3 RNA 2 with U44A
B18: target 1 insG 3' of 16,insA 3' of 6 (mixed)
RNA 1: B1 RNA 1
RNA 2: B1 RNA 2 with G48A, C49G, U50C, C51U, G52C
B19: target 1 insC 3' of 17,insU 3' of 1 (mixed)
RNA 1: B1 RNA 1
RNA 2: B1 RNA 2 with A36C, G37A, G52A, A53U
B20: target 1 G13U,G15U (mixed)
RNA 1: B1 RNA 1
RNA 2: B5 RNA 2 with U30C, G37U, G39U, A42U
B21: target 1 insG 3' of 9,insC 3' of 5 (mixed)
RNA 1: B1 RNA 1
RNA 2: B3 RNA 2 with U44G, A47C, C48G, G49C
B22: target 1 insA 3' of 3,insA 3' of 3 (mixed)
RNA 1: B1 RNA 1
RNA 2: B3 RNA 2 with U45C, A47G, G49U, C50A, U51A
B23: target 1 C4G,G12C (mixed)
RNA 1: B1 RNA 1
RNA 2: B5 RNA 2 with U30C, G40C, A42U, C48G
B24: target 1 insC 3' of 14,insU 3' of 7 (mixed)
RNA 1: B1 RNA 1
RNA 2: B3 RNA 2 with G39C, U41G, A43U, U44A, A47U
B25: target 1 insG 3' of 21,insA 3' of 19 (mixed)
RNA 1: B1 RNA 1
RNA 2: B2 RNA 2 with A32G, U33A, A34U, U35A, G36A, A37G, G38A, A39G, C40A
B26: target 1 C6A,U8G (mixed)
RNA 1: B1 RNA 1
RNA 2: B5 RNA 2 with U30C, A42U, U44G, C46A
B27: target 1 G12U,U19C (mixed)
RNA 1: B1 RNA 1
RNA 2: B5 RNA 2 with U30C, U33C, G40U, A42U
B28: target 1 insU 3' of 22,insA 3' of 22 (mixed)
RNA 1: B1 RNA 1
RNA 2: B2 RNA 2 with C31U, U33C, G36A, A37G, G38A, A39G, C40A
B29: target 1 insC 3' of 13,insU 3' of 12 (mixed)
RNA 1: B1 RNA 1
RNA 2: B3 RNA 2 with G40C, U41G, A43U, U45A, C46U, A47C
B30: target 1 insC 3' of 12,insG 3' of 11 (mixed)
RNA 1: B1 RNA 1
RNA 2: B3 RNA 2 with U41C, A43G, U45A, C46U, A47C

Target: T1, EsCas13d, nuclease-dead
Test: crRNA (strand 1, pre-loaded); Mg2+; 40 mM Tris-HCl pH 7.5, 150 mM NaCl, 6 mM MgCl2, 1 mM DTT, 0.1% Tween-20, 0.2 mg/ml BSA; 25 C; 10 min per concentration, then washed
Conditions: tags: His6-TwinStrep-SUMO cleaved; N-terminal SNAP kept (SNAP-Surface 488); label: 3' end held by stalled T7 RNA polymerase

| Binder | Kd |
| --- | --- |
| B1 | 14.4 ± 2.5 nM |
| B2 | 73 ± 23 nM |
| B3 | 9.5 ± 0.4 nM |
| B4 | 23.7 ± 1.7 nM |
| B5 | 20.8 ± 2.8 nM |
| B6 | 46.6 ± 2.9 nM |
| B7 | 25 ± 8 nM |
| B8 | 47 ± 7 nM |
| B9 | 29 ± 5 nM |
| B10 | 36 ± 4 nM |
| B11 | 13.6 ± 0.6 nM |
| B12 | 30.5 ± 2.6 nM |
| B13 | 28 ± 6 nM |
| B14 | 22.4 ± 1.3 nM |
| B15 | 28 ± 7 nM |
| B16 | 24.9 ± 2.7 nM |
| B17 | 10.4 ± 0.5 nM |
| B18 | 15 ± 0.6 nM |
| B19 | 66 ± 21 nM |
| B20 | 55 ± 19 nM |
| B21 | 11.3 ± 0.5 nM |
| B22 | 7.5 ± 0.6 nM |
| B23 | 18 ± 4 nM |
| B24 | 41 ± 8 nM |
| B25 | 64 ± 15 nM |
| B26 | 12.8 ± 0.7 nM |
| B27 | 42 ± 6 nM |
| B28 | 4.11 ± 0.31 nM |
| B29 | 11.1 ± 0.4 nM |
| B30 | 11.7 ± 0.8 nM |

— paper PMC10786891, “Massively parallel profiling of RNA-targeting CRISPR-Cas13d”
